Where no end group is shown, it is not given here. [ ]: non-standard residue; d: D form. Lys(Me3) = C[N+](C)(C)CCCC[C@H](N)C(=O)O; Lys(Me2) = CN(C)CCCC[C@H](N)C(=O)O; Lys(Me) = CNCCCC[C@H](N)C(=O)O

Broadly, the Kd is the constant that tells how readily two partners part at equilibrium. A high value points to a looser complex.

The target in one test is T1, EED (amino acids 40-441) (human, UniProt O75530-1 40-441).
T1 construct: pGEX-MHL vector, TEV-cleavable GST tag; source: E. coli BL21 (DE3), purified (Glutathione-agarose, TEV cleavage, heparin, gel filtration); not shown: GST, N-terminal, cleaved
T1 sequence (O75530 40-441): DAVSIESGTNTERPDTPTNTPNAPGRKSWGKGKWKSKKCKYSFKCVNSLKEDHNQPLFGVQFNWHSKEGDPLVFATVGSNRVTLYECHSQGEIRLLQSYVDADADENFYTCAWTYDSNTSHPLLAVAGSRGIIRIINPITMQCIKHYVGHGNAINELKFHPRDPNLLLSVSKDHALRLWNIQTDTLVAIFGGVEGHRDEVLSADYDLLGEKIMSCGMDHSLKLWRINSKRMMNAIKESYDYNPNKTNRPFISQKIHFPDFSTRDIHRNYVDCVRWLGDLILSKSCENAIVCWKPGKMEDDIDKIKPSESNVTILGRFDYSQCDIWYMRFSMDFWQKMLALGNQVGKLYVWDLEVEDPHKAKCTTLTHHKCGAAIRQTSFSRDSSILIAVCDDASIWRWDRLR
The test is described as follows: fluorescence polarisation; fluorescence anisotropy direct titration: various concentrations of EED (40-441) with 40 nM 5-FAM labelled JARID2-K116me3 peptide; 50 mM Tris-HCl pH 7.5, 100 mM KCl, 2 mM 2-mercaptoethanol, 0.1 mg/mL BSA, 0.05% NP-40, 2.5% glycerol; 30 °C, 30 min. Conditions: both partners purified. On the technique in general: In fluorescence polarisation assays a small probe gives low polarisation when free and higher when bound to something large.
For RLQAQR[Lys(Me3)]FAQSQY (also: 5-FAM (5-carboxyfluorescein, single isomer) label, site not given here) [5-carboxyfluorescein (5-FAM) labelled JARID2-K116me3 peptide], the affinity, expressed as Kd, was 8.07 µM. This lies in the single-digit micromolar range.

Another test deals with T1, EED (amino acids 40-441). The test can be described thus: fluorescence polarisation; fluorescence anisotropy displacement titration: 2-fold serial dilutions of unlabelled peptide with 10 µM EED and 40 nM 5-FAM labelled JARID2-K116me3 peptide; same buffer, 30 °C; Kd of the unlabelled peptide from a fit. Conditions: both partners purified.
On to TKAAR[Lys(Me3)]SAPAT (also: trimethyllysine at K27, position not placed (two Lys in chain)) [H3K27me3 peptide], for which binding was put at a Kd of 41.7 µM. Molecule LK[Lys(Me3)]FPG [PALI1-K1241me3 peptide] registered an equilibrium dissociation constant (Kd) of 7.49 µM. Regarding LK[Lys(Me2)]FPG [PALI1-K1241me2 peptide], binding was characterised by a dissociation constant (Kd) of 19 µM.

For the molecule LQ[Lys(Me3)]YA [PALI1-K1219me3 peptide], the equilibrium dissociation constant (Kd) came out at 7.59 µM. As to LK[Lys(Me)]FPG [PALI1-K1241me1 peptide], the affinity, expressed as Kd, was 241 µM.

For the origin of these results see PMC8319299, “PALI1 facilitates DNA and nucleosome binding by PRC2 and triggers an allosteric activation of catalysis” (Nature Communications, 2020).
